The record followed here is patent US20250066450A1 (LASK PHARMA, published 2025).

This experiment concerns the target T1, BMP10 (UniProt O95393 317-424).
T1 sequence (looked up): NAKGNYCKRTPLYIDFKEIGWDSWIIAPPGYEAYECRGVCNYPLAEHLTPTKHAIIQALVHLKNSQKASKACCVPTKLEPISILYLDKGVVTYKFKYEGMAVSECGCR
As to the kind of experiment: Biacore (SPR); Fc fusion captured with anti-Fc antibody, ligand injected (FIG. 3B). The protocol:
A Biacore™-based binding assay was used to compare ligand binding selectivity of the ALK6 variant-Fc dimeric complex (e.g., SEQ ID NO: 46) described above with that of ALK6 wt-Fc complexes (SEQ ID NO: 49). The Fc dimeric complexes were independently captured onto the system using an anti-Fe antibody. Ligands were injected and allowed to flow over the captured receptor protein.

B1: ALK6-Fc fusion polypeptide (SEQ ID NO: 89) (Fc fusion)
chain: KKEDGESTAPTPRPKVLRCYCSGHCPEDSVNNICSTDGYCFTMIEEDDSGLPVVTSGCLKLEGSDFQCRDTPIPHQRRSIECCTERNECNKDLHPTLPPVVIGPFFDGSIRTGGGGSGGGGSGGGGSGGGGSTHTCPPCPAPEAAGGPSVFLFPPKPKDTLMISRTPEVTCVVVDVSHEDPEVKFNWYVDGVEVHNAKTKPREEQYNSTYRVVSVLTVLHQDWLNGKEYKCKVSNKALPAPIEKTISKAKGQPREPQVYTLPPSREEMTKNQVSLTCLVKGFYPSDIAVEWESNGQPENNYKTTPPVLDSDGSFFLYSKLTVDKSRWQQGNVFSCSVMHEALHNHYTQKSLSLSPG
On to B1, for which the binding result was “no binding”.
